Results as given in patent US20050136053A1 (DYAX, published 2005).

B1: anti-Tie1 antibody G2, IgG (antibody, V domains shown)
VH: EVQLLESGGGLVQPGGSLRLSCAASGFTFSSYKMGWVRQAPGRGLEWVSSIYPSGGWTHYADSVKGRFTISRDNSKNTLYLQMNSLRAEDTAVYYCARVLLHYFDYWGQGTLVTVSS
VL: QSVLTQPASVSGSPGQSITISCTGTSSDVGGYKYVSWYQQHPGKAPKLIISDVNNRPSGVSDRFSGSKSGNTASLTISGLQAEDDGDYYCSSYASSSYTSSTTWVFGG
notes: VL entry is lambda and stops within FR4
B2: anti-Tie1 antibody s-B2, IgG (antibody, V domains shown)
VH: EVQLLESGGGLVQPGGSLRLSCAASGFTFSIYGMAWVRQAPGKGLEWVSVISPSGGQTFYADSVKGRFTISRDNSKNTLYLQMNSLRAEDTAVYYCARVYYYGMDVWGQGTTVTVSS
VL: DIQMTQSPATLSLSPGERATLSCRASQSVSSYLAWYQQKPGQAPRLLIYDASNRATGIPARFSGSGSETDFTLTISSLEPEDFAVYYCQQRSKWPRTFGQGTKLEIK
notes: VH entry is a raw phagemid read that runs into CH1
B3: anti-Tie1 antibody s-D11, IgG (antibody, V domains shown)
VH: EVQLLESGGGLVQPGGSLRLSCAASGFTFSGYAMWWVRQAPGKGLEWVSSISPSGGATAYADSVKGRFTISRDNSKNTLYLQMNSLRAEDTAVYYCARDAGSYYWGWFDPWGQGTLVTVSS
VL: DIQMTQSPATLSLSPGERATLSCRASQSISSYLAWYQQKPGQPPRLLIYDASSRVTGIPARFSGSGFGTDFTLTISSLEPEDFAVYYCLQRSSWPRTFGQGTKLEIK
notes: VH entry is a raw phagemid read that runs into CH1; also called Di1

What was measured:
[1] = target: T1, endogenous human Tie1 (primary human endothelial cells, HUVEC, human tissue sections, SW480 cells) (human, UniProt P35590 25-1138); test: immunofluorescence, HDMEC
T1 construct: also called endogenous Tie1; HDMEC
T1 sequence (P35590 25-1138): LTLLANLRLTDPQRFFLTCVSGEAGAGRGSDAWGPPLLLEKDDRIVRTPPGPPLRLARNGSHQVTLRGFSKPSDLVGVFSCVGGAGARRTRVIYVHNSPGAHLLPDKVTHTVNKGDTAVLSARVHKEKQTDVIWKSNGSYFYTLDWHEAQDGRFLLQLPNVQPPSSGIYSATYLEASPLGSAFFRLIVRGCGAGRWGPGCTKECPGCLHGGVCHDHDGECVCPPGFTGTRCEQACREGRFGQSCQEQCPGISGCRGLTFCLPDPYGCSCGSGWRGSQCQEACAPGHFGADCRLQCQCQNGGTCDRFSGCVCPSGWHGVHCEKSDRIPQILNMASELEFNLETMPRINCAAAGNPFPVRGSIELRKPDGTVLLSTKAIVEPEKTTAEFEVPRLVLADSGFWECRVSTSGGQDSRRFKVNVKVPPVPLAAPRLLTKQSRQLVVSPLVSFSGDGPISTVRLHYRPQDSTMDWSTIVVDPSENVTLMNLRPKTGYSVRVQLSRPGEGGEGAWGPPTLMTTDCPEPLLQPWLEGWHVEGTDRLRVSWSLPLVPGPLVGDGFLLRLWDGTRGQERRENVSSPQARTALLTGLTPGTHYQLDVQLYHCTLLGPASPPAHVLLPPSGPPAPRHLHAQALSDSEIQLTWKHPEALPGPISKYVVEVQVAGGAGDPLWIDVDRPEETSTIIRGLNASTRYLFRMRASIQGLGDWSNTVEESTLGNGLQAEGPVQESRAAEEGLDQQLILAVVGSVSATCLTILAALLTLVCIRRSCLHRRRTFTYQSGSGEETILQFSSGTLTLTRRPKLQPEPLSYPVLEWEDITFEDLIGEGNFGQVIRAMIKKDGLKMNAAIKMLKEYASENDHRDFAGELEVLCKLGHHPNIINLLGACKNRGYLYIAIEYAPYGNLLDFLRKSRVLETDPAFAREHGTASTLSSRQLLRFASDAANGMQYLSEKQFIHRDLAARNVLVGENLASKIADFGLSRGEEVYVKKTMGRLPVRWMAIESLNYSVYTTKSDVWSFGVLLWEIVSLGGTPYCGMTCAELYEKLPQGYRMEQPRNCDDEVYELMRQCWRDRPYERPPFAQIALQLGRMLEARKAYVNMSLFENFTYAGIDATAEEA

[2] = target: T2, V5-tagged full length human Tie1 expressed in COS1 cells (pcDNA3-Tie1-V5) (human, UniProt P35590 25-1138); test: Western blot, Tie1-V5-transfected COS1 cells
T2 construct: Cell lysates in Western blot and immunoprecipitation, fixed cells in immunofluorescence; also called Tie1-transfected; transfected Tie1
T2 sequence (P35590 25-1138): as above
Method: (§1) COS1 cells were transfected with pcDNA3-Tie1-V5 (1 μg DNA per 10 cm cell culture plate) using FUGENE 6 (Roche) according to manufacturer's instruction and incubated for 48 h before stimulation. For immunoprecipitation, Tie1 transfected cells and HMVEC cells were lysed in DOC-RIPA lysis buffer (50 mM Tris-HCl pH 8.0, 150 mM NaCl, 1% Triton-X-100, 0.1% SDS, 1% DOC, 10 mM EDTA) supplemented with aprotinin, leupeptin, PMSF and sodium vanadate. Immunoprecipitation was carried out from equal amount of cell lysates by incubating with polyclonal anti-human Tie1 antibodies (R&D), monoclonal anti-V5 antibodies (Invitrogen) or altogether 23 anti-Tie1 antibodies (1 μg/ml) for 1 to 2 h followed by incubation with protein G-Sepharose (Amersham Pharmacia Biotech AB) for 1 h. The immunoprecipitates were washed twice with PBS-T and twice with PBS, followed by elution with the Laemmli buffer and separation in 8% SDS-PAGE. The blots were probed with the 23 anti-Tie1 antibodies (5 μg/ml) and subsequently anti-human Fc antibodies conjugated with HRP.
(§2) Next, to find out if the anti-Tie1 antibodies recognize Tie1 in living cells, those cells were studied by immunofluorescence staining.

[3] = target: T1, endogenous human Tie1 (primary human …); test: Western blot, HDMEC; Western blot, HDMEC
Method: as §1, §2

Row | Binder | binding result [1] | binding result [2] | binding result [3]
1 | B1 | binds | binds | –
2 | B2 | – | binds | binds
3 | B3 | – | binds | binds
